Assay: soluble on expression in E. coli; label from the status in PepcDB or PDB records

Sequence | soluble on expression in E. coli
MSLRKEFPLMNRLKELRKEKNITLVELSEELGIPRSTLNRYENEDSEPKQETWEKLADYYGVSTAYLMGISNQKVSEEKALTAAKKVYQVYLSDDDLGKEIRKALMYFNKNDLDSVLKQAMQQYFTIPAVEWNTEFQSLKNTGFLYSWLEGYLVDRYRKEVKTNHNLITNTYYSIPSIDDVNEYGIFSDEIQIPLTEDFKQIFKVEDLSTKTHEEIKKLFKSDSTLIAYSYESSVDDKLKDDINMILDNARSEILNLKEKYPDKPSRIEQTTVLISKDEDTSFWSRNGSNDYIDELNLSEETKKLFVHLGSVFIEEKKRKSKAKEEGGSHHHHHH | soluble
MPAFDKPKVELHVHLDGSIKPETILYYGRRRGIALPANTAEGLLNVIGMDKPLTLPDFLAKFDYYMPAIAGCREAIKRIAYEFVEMKAKEGVVYVEVRYSPHLLANSKVEPIPWNQAEGDLTPDEVVALVGQGLQEGERDFGVKARSILCCMRHQPNWSPKVVELCKKYQQQTVVAIDLAGDETIPGSSLLPGHVQAYQEAVKSGIHRTVHAGEVGSAEVVKEAVDILKTERLGHGYHTLEDQALYNRLRQENMHFEICPWSSYLTGAWKPDTEHAVIRLKNDQANYSLNTDDPLIFKSTLDTDYQMTKRDMGFTEEEFKRLNINAAKSSFLPEDEKRELLDLLYKAYGMPPSASAGQNLAENLYFQ | soluble
MKYTVITGASSGIGYAAALAFASRGKNLVLVARRQEELNGLKLKINEMHPELDVVIRKTDLSVTEDVYKLYESLQAFQIETWINNAGFGNFASIAEQNLNKIETMLHVNIEALTILSSLFVRDYSMIDGTQLINVSSGGGYTIVADAVTYCATKFYVSAFTEGLSHELKEQGAKLQAKVLAPAATETEFAKRSFDIDEFQYDNVVPKFHTAKQMAQFMLDLYDNDKVVGIVDGLTYNYELKDPLYNFAVRQKNSNS | not soluble
MPENVTVIGAGLAGSEATWQLAKRGIHVDLYEMRPKKETPAHETGEFAELVCTNSMRSNQLSNAVGLLKEEMRHLDSLIMKAADMTQVPAGGALAVDRDSFSKYVTDTLKGMDNVTVHEEEIVKIPEDGITIIATGPLTSDALAKQIQAFSGTDSLHFFDAAAPIIAADSIDMDIVYKKSRYDRGEAAYLNCPMSKEQYEKFANELIKAETAQLHGFENSDVFEGCMPIEVMAARGAKTMLFGPLKPVGLEDPHTGETPYAVVQLRQDNAAASMYNIVGFQTHLKFGEQKRVFSMIPGLENARFVRYGKMHRNTYMASPNVLTASYEAKNRPGLFFAGQMTGVEGYVESAGSGLVAGINAAREALGKETVAFPKNTALGSMANYVTTTSAKHFQPMNASFALLPALEGKKIRKKRERHEKISERGLASLDAFKTEVLDLEHHHHHH | soluble
MGSDKIHHHHHHMANDWLELRQHADTGIETIKAHFEGHAYDPHWHDSYLVGLTLSGTQQFHCRRERHRSRPGDAFLLEPGEIHDGDAPVDGGFTYLTFYLDEQWLTNALHGLYESTPGSYSLHFAQTLTREPQLVRSISDSFTTLHNDEMKIVQQSSMDKLLSQITAHCHWRKRLPSQLQSTAVAHRARDYLYAHMGENIGLSDLARETGTDRFTLTRCFKREFHLAPHAWFIQLRLAKARQLLAYGDQPADVAAALGFSDQSHLGRWFQRAYRISPAHYRRLCTNLPDVSRR | not soluble
MLPQLKAQFKEREPDVREYNADILVVGGGLGGVAAALGALRNGRSVILTEAFEWIGGQLTSQAVPPDEHSWVEQFGITASYRALRTGVRQYYRDHYPLTDAARADLTLNPGDGNVSRLCHEPRVSLAVMEAMLAPFAAGGKLTILKPYEPIAADVEGDTVRAVTLRHCNTSDLVSCSARYIIDATELGDLLPLTATDYVTGFEAQSETGEPSAPAEAQPHNQQAVSICFAVDQVDGNHVIDKPARYDHWRQVAPEFWGGPLLSWDSPNPRTLERSRRFFDPNPVDNATRDVADQRHSAGDMSLWIFRRIAARHTFRPGAYASDICLVNWPMIDYFEAPIIDVTPEQYAERLADAASLSYSMFYWMQTEAPRPDGGQGFPGLRLRGDITGTEHGLAMAPYIRESRRIRALTTVVEQDLSLAVRGDRGAVHYPDSIGIGMYRIDLHPSTGGDNYIDVGACPFEIPLGALISRHKTNLLAASKNIGTTHITNGCYRLHPVEWNIGEVAGMLAAYCLDKGETPHGVHADEKRLAEFHTHIERQGVERHWPDIRGYLEHHHHHH | not soluble
MVEMDGRKFLKLLKEEVHKAVVGKDDVIELLAIALLAEGHVMIEGVPGVAKTTIAKSFAQVLGLKFSRIQLTPDLLPADILGTVYYDQSDGLWKIKKGPIFANVVLADEINRAQPKTQSALLEAMQERQVTIEGRTFPLEKPFMVIATKNPIEFEGVYNLPEAQVDRFMLNIKIGYPTREEEVEMLRKKDRGELGEVGRIFSREQIVRMINEVKRVKTSEEVLHYLYEIVNETRKDERLIVGASPRASEHLLYASKAKAFLEGRDYVIPDDVKFLAVPVLAHRLLIKAEHEIEGIKGEDIVREILERVEVPI | soluble
MSLSYEYFPGFYDRLMDSELYDEWLEFSADFIGDTSKKVLDLACGTAEFALRLSFLGHQVTGVDLSKEMVAVAKEKVAAAEINLSILEQDMSKLALNQTFDVITCFCDSLNYLETEQALENTIKAVSDHLTPNGLFLFDVHSVFKIDQGFKDYSYGDSDEEISIIWNSFPGEYPHSVEHELTFYILGEDNMYNRVDELHKERTYPITTYKELLKKYGFSKIDVYADFSHENPTNSSERIFFVARKEGHHHHHH | soluble
GNFGWSSYLTYSLNRNKVVELLRNYEDPYTHELTSLDRIDMGGTSMYKMILTEGGSIGDIYVNTLRTDEHGAIYVHPSDQVVVTQPDEFVKAGNSAPKYNLGWGNTFSYKGLSLGFLFTARVGGVVVSQTQATMDAYGSSKATAIARDNGGAIVNGRPIGAEDYYTKIGGAGAQGGIGSMYTYSATNVRLAELSLGYDIPINKYVDWIKGLNVSFIGKNLFFLYRKAPFDPELTASTGTYFQGIDMFMSPSLRNLGFSVKVNF | not soluble
MSSIEWNEKTFAKFAYLSDPRTKGELVAYVLTKANLKDNKYENTIVIENLKNNARRFIENATMPRISPDGKKIAFMRANEEKKVSEIWVADLETLSSKKILEAKNIRSLEWNEDSRKLLIVGFKRREDEDFIFEDDVPAWFDDLGFFDGEKTTFWIFDTESEEVIEEFEKPRFSSGIWHRDKIVVNVPHREIIPQYFKFWDIYIWEDGKEEKMFEKVSFYAVDSDGERILLYGKPEKKYMSEHNKLYIYDGKEVMGILDEVDRGVGQAKIKDGKVYFTLFEEGSVNLYIWDGEIKPIAKGRHWIMGFDVDEIVVYLKETATRLRELFTWDGEEKQLTDYNDPIFAKL | soluble
MTFTGLPPEDVPALMTGAVIPHPSVAGRADAYLPSPCIQNHAANLAFLPDGTLSCVWFGGTMEGMRDISIYMSRLPPGSGRWSEPEKMSDDPEKSEQNPLIFNAPDGKTWLLYTSQTSGNQDGSIVKCRISDDGGKTFGPVQILCDSPGTFVRQQIVVNDRGDWLLPIFRCVGLEGQRWSGDADTAAVLISRDGGASWQMRDIPDSIGAVHMNILPLGGCEMIAFYRNRFAETILSSRSADGGETWSPPEPTELPNNNSSIQATVLDNGGIAMVYNHSNATMSDARRQSLYDEIEGDECGENAAVVADAGRKAVWGVPRAPLSLAISRDGGRTFPHRIDLDTGDGFCLSNNSKDSLNREFSYPSVIEGSDGTLHVAYTYYRRAIKYVRLAPRALPLEHHHHHH | soluble
ATGWNNALGHTAANEEPQEEASSQTTSIHFPLDYKQWQEEQDINLLNRALEEAKFNQRQAAELLGLSYHQLRGMVRKYGLVGQS | soluble
MMVIGRLGAGKSFATKLRLVRRAMFDEDTVVIMLDPMRGFAGVNEALDGERITVGGRRGLNPLEIKPTPDHVLQEVDDIDPWGEQINWVMTFFATFFEHVADHPLGERNQTLRRAVQEAYEKRGITRDPETHTRDSPTIHDVITVLEEMVEDPEEYGYVTDGEQEAVQSDAQSLLKDLRPSFREGGELENLARPSEFDLDSKVIYLDLHQEEGTRGRAETSLMMQVLFNSVYERVKQTDKRVVFCIDEAHYLMNDAVSLDFLETAVRHSRHFDLSLEFITQTGGEFALTPEARTIANLCSLTVLHRVNEEKEKIAKWF | not soluble
GMNSDIIVADFWKNNEEILTDFDKDSFCESWTENEMWSIEFKVAQTPKNAHCYSFLDYESSVYFRGQEFVVKQLSHDAVGKTLSKDIRAPHIYYTCQDGRQDDAITGSFTLEQCLTHIFKTDNRGFSWEIIDPSNILEKVQQENFGNNNYLTLIDQLLDDYGVVVIPDNRHLVFKPREIYGAKTENFIRYKYNTDEASFDIDTLSLKTKIKGYGKVDSNGNNYFSPITYTSPEVEKWGIRWQEPVSDERYTVAGNMQRRLKLELQDYPATTGSVILKNDYECEKGDYVLFIYEPLGIDYDVQIVAYKKYPFTIKAPEITLSNNKKSIVSIMAQLAKVLKGAK | soluble
MKLSLRQLQIFCAVAQHGSTTSAAISVSLSQSATSAALNELESALDTRLFDRVGKRLVLNDNGHALLPQARRMLENAQQIEASFLPGHAGLKTRLRVGCSTTIGNYVLPLILGELRQSTPHLRVDVDMANSMAIARRVADFEIDMGLIEGPCHLPELSAEPWLIDELLIAAGQRHPLALKQQVTLDDLRTAEWLLREPGSGTREEVEQLLLRHLHDLAETRQIGSSEAIKHTLAQGIGISCLSRWVVRDLLASEVLVELPHALPALTRRFFLIRHRDKYISPGLERFWEKCSQFVSQE | not soluble
PMGDGTQVVFTTSLIPTEAIVQLDTKAPANSKQSPIFFISPIEGFASALEPLAKRLEVPAYGLQYTEAVPSDSLESAAKFFIKQLRTVQPKGPYKLAGYSFGCLLTYVMAGILEETNEVANVIMLDGAPSYVNWYTSSFKQRYTDGTNADNDNQSYGLAYFGIVLANIDYKALVRLLIVIPTWEEKLERFAELMSNEITQPVETIKKSATLFYKKLELADGYQPTLKLKTNVTLVKPTDNSAKLDEDYRLKEVCTKPVEVHTVEGNHRTFLIEDQSLKTIQSILKRL | soluble
MRDLFDEVAGKSPLDPNEAVRRTSRAQLPKRFYTEAGVAEENGGFAVRLDGRAVKTPSRNALAAPDRALAEAIAAEWQAQGETIDPSTMPLTRLANSVIDGVAGRVEAVTDDIAKYFGSDLLFYRAEHPEELIAREGAHWDPVLFWAKDALGAHFILAQGIVHVGQPETALAAARAALPADPWLLGALHVVTTITGSALLALALAHGRLEADQVWAAAHVDEDWNIEQWGLDEEAAARRAAKQAEFAAAAQVIAALGSRRSAAALEHHHHHH | not soluble
MVVAFLIGAGGMFAGMSLFGVNPAEVTQTISSGNASTAQGNLAKINEAYALIDSRYVEDVKDEKLVEGAIQGMLSTLKDPYSTYMDKETAKQFSESLDPELEGIGAEVNKTDGKLIIVSPIKGSPAEKIGIKPNDQILSVDGNSVKDLSREEAVLKIRGKKGTTVAIEIKRAGVADPIVFKIKREKIPIFTVFSSVKQESGKDIGYMQITSFAENTAKEFKDQLKELEKKNIKGLVIDVRGNPGGYLNSVEEILGEIMTDKKPMLQVEQRNGEKKKFSTELKERKPYPISVLIDNGSASASEILAGALKEGEGYDLIGEKTFGKGTVQQAVPFKDGSNIKLTMFKWLTPDGNWIHKKGIKPTVEVKQPDYYHATPIQIEKTLSYNANDVQVKHAQEMLKSLGYVPGREDGYFSKETESALKAFQNANKMEATGQLDKKTAEAIQTKIIEKIRSGENDLQLQSALKLMAK | not soluble
